Consider 66 sequences from the supplement of paper PMC10126150.

± gives the standard deviation of the averaged measurements.
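Further: ATP exposure 15 min at 22 °C before imaging.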

This data set relates to ATP. The experiment in a line: switch fluorescence ratio, 500 uM ATP over buffer (Cy3 cluster intensity, sum of 5 cycles each) (fold (ratio)); higher = stronger signal-on switching upon ATP binding; sequences stand for … in TCGTCGGCAGCGTCAGATGTGTATAAGAGACAGTTTTTTTTTTTTTTTTTTTTTTTTT…TC. The conditions noted are these: aptamer strand: ATP DNA aptamer (quencher-CACCTGGGGGAGTATTGCGGAGGAAGG + anchor), 100 nM annealed; ATP concentration: 500 uM. The procedure, abridged: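 Clusters carrying Cy3-labelled switching strands on a modified Illumina MiSeq flow-cell were annealed to 100 nM quencher-labelled ATP aptamer and imaged in selection buffer. They were imaged again after 15 min with 500 uM ATP at 22 °C, over five buffer/ATP cycles with NaOH stripping and re-annealing in between. For each cluster, the fluorescence ratio is the summed Cy3 intensity of the target cycles divided by that of the buffer cycles, averaged per switch-domain sequence. Clusters outside 100-1000 RFU were left out.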
As to TATGTTATTT, the switch fluorescence ratio is 1.02 ± 0.012.

In the case of AGCCGGGTGT, the switch fluorescence ratio was determined as 1.34 ± 0.47.

In the case of GCGGATGCGT, the switch fluorescence ratio turned out to be 1.03 ± 0.048.

With GCTCCATCGA, the switch fluorescence ratio was determined as 1.11 ± 0.015.

As for GAGGTGCGGG, the switch fluorescence ratio turned out to be 0.99 ± 0.023.

TTAGGAGAAT: the switch fluorescence ratio was determined as 0.999 ± 0.015.

In the case of CCGGGGAAGG, the switch fluorescence ratio was 1.04 ± 0.0092.

On to CGTCGGGGTT, for which the switch fluorescence ratio worked out at 0.973 ± 0.032.

GGGGGGAGTC: the switch fluorescence ratio was determined as 1.05 ± 0.028.

For TACAGGGGTC, the switch fluorescence ratio is 1.06 ± 0.019.

As to GCTGATGACT, the switch fluorescence ratio stood at 0.9918 ± 0.0063.

For ACTGGAGGAT, the switch fluorescence ratio was 1.05 ± 0.013.

With TCGTGTAAAC, the switch fluorescence ratio is 0.981 ± 0.028.

For GAAAGGTTGG, the switch fluorescence ratio was determined as 0.993 ± 0.025.

On to GGATTAGCTT, for which the switch fluorescence ratio turned out to be 1.01 ± 0.051.

Turning to TGTTGGCACA, the switch fluorescence ratio amounted to 1.015 ± 0.0012.

As to GTTTTTAGAC, the switch fluorescence ratio was determined as 1.03 ± 0.014.

In the case of CGGGGGCTGT, the switch fluorescence ratio amounted to 0.964 ± 0.0037.

As for GGTGGTGGCC, the switch fluorescence ratio was 1.01 ± 0.023.

As for ACTTGATACG, the switch fluorescence ratio was 1.08 ± 0.063.

In the case of CAAATGAAAG, the switch fluorescence ratio was determined as 1.004 ± 0.0058.

In the case of CAAGGGGCGT, the switch fluorescence ratio is 1.01 ± 0.035.

Regarding GGATGGGGGT, the switch fluorescence ratio came out at 0.9972 ± 0.0097.

Take GAGCAAAGGT: the switch fluorescence ratio was 1.04 ± 0.031.

With AGGCTCTTAT, the switch fluorescence ratio was 1.03 ± 0.049.

Take CTGAGGGGTG: the switch fluorescence ratio is 1.01 ± 0.037.

With AAGTTTATCA, the switch fluorescence ratio was 1.003 ± 0.0032.

Turning to GATTAGGGGT, the switch fluorescence ratio is 0.99655 ± 0.00059.

In the case of ACCACAATGT, the switch fluorescence ratio is 1.08 ± 0.055.

As for CGGGTTTTAT, the switch fluorescence ratio amounted to 1.01 ± 0.028.

Take AAAACAGTT: the switch fluorescence ratio amounted to 1.05 ± 0.02.

As to AAATATGACT, the switch fluorescence ratio came out at 1.06 ± 0.058.

Consider CATTGTGTGA, for which the switch fluorescence ratio amounted to 0.994 ± 0.021.

Consider TTTTTACCGT, for which the switch fluorescence ratio was determined as 1.12 ± 0.088.

Take AAAGGGGGTT: the switch fluorescence ratio amounted to 1.04 ± 0.042.

As to TGGGCTCTGT, the switch fluorescence ratio came to 0.978 ± 0.044.

For TTTGTTTAAG, the switch fluorescence ratio came out at 0.973 ± 0.012.

With AATTATGTTT, the switch fluorescence ratio turned out to be 0.995 ± 0.03.

Turning to TATTATTGCG, the switch fluorescence ratio came out at 0.988 ± 0.011.

Take TTATACGTCG: the switch fluorescence ratio was found to be 1.01 ± 0.023.

As to CTTTTAGTTT, the switch fluorescence ratio is 0.9963 ± 0.0034.

Turning to GGAGTTCCAG, the switch fluorescence ratio is 0.978 ± 0.048.

For the sequence GGCCCAGAAA, the switch fluorescence ratio came to 1.003 ± 0.0097.

Regarding CCTTTATTTA, the switch fluorescence ratio is 0.986 ± 0.026.

Regarding TGAATTGGGA, the switch fluorescence ratio came to 1.02 ± 0.07.

CCGTTGGGTG: the switch fluorescence ratio worked out at 1.12 ± 0.071.

Regarding TTTAGTAGCT, the switch fluorescence ratio amounted to 1 ± 0.032.

Consider CGGAAGTTCT, for which the switch fluorescence ratio stood at 0.993 ± 0.049.

AGCTGATACT: the switch fluorescence ratio is 2 ± 0.061.

In the case of TTATTCGGTA, the switch fluorescence ratio is 0.9978 ± 0.0065.

For TAGGGCTGGG, the switch fluorescence ratio turned out to be 0.972 ± 0.048.

For AGCATATAGG, the switch fluorescence ratio amounted to 1.009 ± 0.0059.

On to GTAAGCCCGC, for which the switch fluorescence ratio worked out at 1 ± 0.053.

As for GGGTATATAG, the switch fluorescence ratio was determined as 1.02 ± 0.036.

As to CTCACTGCAT, the switch fluorescence ratio was 1.46 ± 0.11.

Consider TTGTTGATTT, for which the switch fluorescence ratio was 1.02 ± 0.034.

For the sequence TTGTTGGTTT, the switch fluorescence ratio came to 1.02 ± 0.05.

Consider CCAAGGGATG, for which the switch fluorescence ratio was determined as 0.967 ± 0.018.

As for CAGCGTTGTT, the switch fluorescence ratio stood at 0.993 ± 0.018.

With TTCAATCCGT, the switch fluorescence ratio amounted to 1.17 ± 0.24.

Regarding TATTTTCGTA, the switch fluorescence ratio is 1 ± 0.021.

For GATAGAGGGT, the switch fluorescence ratio came out at 1.01 ± 0.033.

As to GGGGTCGGTA, the switch fluorescence ratio was 0.9893 ± 0.0032.

For the sequence TGACACAGTA, the switch fluorescence ratio stood at 1.26 ± 0.21.

With TTTAATGTAC, the switch fluorescence ratio stood at 1.36 ± 0.32.

As for ATGGGATACT, the switch fluorescence ratio came out at 1.03 ± 0.033.
